Experimental findings from patent US20260035426A1 are described below.

The target of one assay is T1, CM1.
T1 sequence (peptide): MVPSALTASG
Put plainly: cell-based or functional assay.

The target of another assay is T2, CM4.
T2 sequence (peptide): MVVLALTASG
Put plainly: cell-based or functional assay.

Chain of recombinant human MMP2 (P08253 110-660 limits assumed): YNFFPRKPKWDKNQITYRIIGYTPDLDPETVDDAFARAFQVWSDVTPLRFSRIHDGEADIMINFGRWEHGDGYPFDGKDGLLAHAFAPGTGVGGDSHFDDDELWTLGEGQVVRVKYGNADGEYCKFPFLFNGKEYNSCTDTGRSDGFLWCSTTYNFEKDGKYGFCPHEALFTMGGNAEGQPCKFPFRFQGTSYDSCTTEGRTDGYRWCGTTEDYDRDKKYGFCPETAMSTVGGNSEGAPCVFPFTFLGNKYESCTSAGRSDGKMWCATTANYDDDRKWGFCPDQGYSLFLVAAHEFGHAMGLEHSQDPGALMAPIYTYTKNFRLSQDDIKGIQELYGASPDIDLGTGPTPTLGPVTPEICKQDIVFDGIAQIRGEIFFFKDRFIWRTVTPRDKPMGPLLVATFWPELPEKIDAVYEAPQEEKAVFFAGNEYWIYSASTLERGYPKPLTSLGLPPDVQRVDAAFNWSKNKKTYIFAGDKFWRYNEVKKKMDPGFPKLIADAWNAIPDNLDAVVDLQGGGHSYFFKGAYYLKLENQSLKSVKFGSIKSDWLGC

Consider “recombinant human MMP2 (from UniProt P08253 110-660) (enzyme)”, for which the Cleavage efficiency (EC50) in the assay with CM1 turned out to be 0.006 mg/L; in the assay with CM4 it was 0.15 mg/L.
For “recombinant human MMP9 (from UniProt P14780 107-707) (enzyme)”, in that order: 0.05 mg/L and 0.2 mg/L.
